Measurements: patent US20150368616A1, “METHODS FOR INDUCTION OF CELL FATES FROM PLURIPOTENT CELLS” (THE CLEVELAND CLINIC FOUNDATION, priority 2013, published 2015)

B1: Wnt3a: canonical Wnt ligand (protein, UniProt P56704 19-352, looked up)
Protein Wnt-3a: SYPIWWSLAVGPQYSSLGSQPILCASIPGLVPKQLRFCRNYVEIMPSVAEGIKIGIQECQHQFRGRRWNCTTVHDSLAIFGPVLDKATRESAFVHAIASAGVAFAVTRSCAEGTAAICGCSSRHQGSPGKGWKWGGCSEDIEFGGMVSREFADARENRPDARSAMNRHNNEAGRQAIASHMHLKCKCHGLSGSCEVKTCWWSQPDFRAIGDFLKDKYDSASEMVVEKHRESRGWVETLRPRYTYFKVPTERDLVYYEASPNFCEPNPETGSFGTRDRTCNVSSHGIDGCDLLCCGRGHNARAERRREKCRCVFHWCCYVSCQECTRVYDVHTCK
B2: K86/87 to Arginines: Ngn3 substitution mutant, lysines K86/87 replaced by Arginines, stabilized Ngn3 (protein, UniProt P70661 1-214, looked up, variant K86R K87R)
Neurogenin-3: MAPHPLDALTIQVSPETQQPFPGASDHEVLSSNSTPPSPTLIPRDCSEAEVGDCRGTSRKLRARRGGRNRPKSELALSKQRRSRRRRANDRERNRMHNLNSALDALRGVLPTFPDDAKLTKIETLRFAHNYIWALTQTLRIADHSFYGPEPPVPCGELGSPGGGSNGDWGSIYSPVSQAGNLSPTASLEEFPGLQVPSSPSYLLPGALVFSDFL

Tests used:
H1 hES cultures = assay: Pan-CM induction with reduced serum levels and Wnt3a on the first day, transcript analysis; assay type: cell-based, human
From the text: FIG. 16 (A-B)—Reduction of serum levels increases endocrine formation. Pluripotent cultures were passaged onto matrigel and maintained in MEF-conditioned medium for three days before being induced to differentiate by exposure to Pan-CM. Three different conditions were used as outlined in panel A. In the first condition Pan-CM was supplemented with Wnt3a on the first day followed by a 0.2% concentration of FBS for the rest of the reaction. In the second condition Pan-CM was supplemented with 0.2% FBS for the second day on. In the third condition Pan-CM was supplemented with 2% KO serum replacer.
The Pan-CM mediated induction of insulin producing cells from the H1 hES cultures is improved when low concentrations of serum is used. […] Finally it was noted that lower levels of serum reduced to levels of MEOX1 (a gene associated with the mesodermal lineage) observed in these cultures.

pluripotent cultures = assay: Defined (cell conditioned) medium versus Pan-CM, 5 day induction with serum variations and Wnt3a; assay type: cell-based, human; conditions: Wnt3a on the first day of the induction, 5 day induction period
Procedure: FIG. 44 (A-B)—Cell conditioned medium improves over the Pan-CM induction of pluripotent cells. Pluripotent cultures were passaged onto matrigel and maintained in the presence of MEF conditioned medium for 3 days to maintain pluripotency. They were next subjected to either Pan-CM or our cell conditioned medium supplemented with either 2% KO serum replacer or low concentrations of FBS as defined in panel A. The addition of Wnt3a on the initial day of differentiation was also assayed. […] Note the occurrence of the trunk progenitor cell is best defined with the loss of NKX6.1.
We next explored the ability of our defined medium informed from the transcriptome and sectretome analysis of the Pan-MEF cultures to induce the differentiation of pluripotent cells towards pancreatic fates. This was performed in short term cultures with incubation periods only lasting 5 days (FIG. 43).

[1] = test system: stage 4 forward directed differentiating hES culture; assay: Wnt3a at stage 4 of directed differentiation, RT-qPCR and immunohistochemistry; assay type: cell-based, human
Procedure: Panel A—Schematic representation of the two different directed differentiation protocols used throughout this series of experiments. The only difference between the two different differentiation protocols is the inclusion of Wnt3a at stage 4 of the directed differentiation protocol as illustrated. Control Cultures and cultures which had Wnt3a administrated at stage 4 were incubated an additional 4 days in maturation medium before RNA extractions and immunohistochemical analysis were performed. Panel B—An RT-qPCR analysis of the two differing conditions. Transcripts assayed are the endodermal marker FoxA2, the pancreatic progenitor marker Pdx1, the TrPC marker Nkx6.1 and the two endocrine markers Glucagon and Insulin. Note two different primer sets were used for insulin.
Panel C-J—Immunohistochemical analysis of stage 5 (day 4) cultures differentiated in the presence and absence of Wnt3a at stage 4. Panels CD and E-F compare the relative levels of C-peptide and Pdx1 respectively between the two differing differentiation protocols. Panels G-J show the combined expression of C-peptide and Pdx1 at both 10× magnification (panels G-H) and 20× Magnification (panels I-J).
To investigate the role of a canonical Wnt input on a PDX1+ progenitor population, Wnt3a was administered to a stage 4 forward directed differentiating hES culture. […] The relative expression of Pdx1 was increased over ˜5 fold over stage 4 cultures lacking the canonical input and relative transcript levels reached ˜3000 fold over hES controls. While Nkx6.1 levels were modest in comparison, only reaching a ˜3.3 fold increase over the stage 4 cultures lacking the canonical input and a relative transcript fold increase of ˜200 over hES controls. […] Both Glucagon and Insulin relative transcript levels were ˜2 fold greater in stage 4 cultures treated with Wnt3a as compared to stage 4 cultures lacking the canonical Wnt drive (FIG. 62 panel B). While there was a ˜5000 fold increase in Glucagon transcript levels and a ˜2500 fold increase in Insulin transcript levels when compared to hES levels. As a means to confirm the accuracy of the relative Insulin transcript levels two different set of primers were used and both primer sets produced similar results. In addition immunohistochemical analysis of these two different reactions was used to confirm the transcript analysis.

Ngn3 = assay: Mutational series of Ngn3 in the HepG2 stability assay; assay type: cell-based
From the text: FIG. 66 (A-B) illustrates a mutational series of Ngn3, designed to stabilize the protein. A. listing of site directed point mutations. B. Testing of five substitution mutants.
Combined, these analyses served to focus us on the presence of lysines in the Helix 1/loop region and highlighted the importance of N-terminal acetylation protection as well. Of note, The K^118LTK^121 motif in the loop is completely conserved in Ngn3 in vertebrates, including teleosts and amphibians, and also between Ngn family members. Our approach to stabilizing Ngn3 is therefore to create an exhaustive point-substitution series of K>R to cover the entire protein (FIG. 66A), and also create deletion mutants of the N-, and C-termini flanking the bHLH domain. Because K121 is completely conserved in the bHLH family group, and positioned so that it aligns with the Helix 1 axis, this residue is likely critical for the folding/binding dynamics of the HLH domain, and mutation of this may likely impact DNA binding/function. Such constraints are not evident for K^118. We will also substitute the T120 residue in the KLTK loop to a Glutamic acid (E) to mimic a possible stabilizing phosphorylation event, which, based on phylogenetic comparisons to MASH1 may be of importance. […]

[2] = Wnt3A added to Pan-CM on the first day, then 0.2% FBS

Molecule | HNF1-B up regulation (H1 hES cultures; [2]) [×] | HNF6 up regulation (H1 hES cultures; [2]) [×] | insulin transcript levels (H1 hES cultures; Wnt3a on the first day of differentiation in Pan-CM) | NKX6.1 expression (pluripotent cultures) | Glucagon and Insulin relative transcript levels compared to stage 4 cultures lacking the canonical Wnt drive [1] [fold] | Glucagon transcript levels increase compared to hES levels [1] [fold] | Insulin transcript levels increase compared to hES levels [1] [fold] | Nkx6.1 increase over the stage 4 cultures lacking the canonical input [1] [fold] | Nkx6.1 relative transcript fold increase over hES controls [1] [fold] | Pdx1 relative expression over stage 4 cultures lacking the canonical input [1] [fold] | Pdx1 relative transcript levels over hES controls [1] [fold] | Ngn3 protein stability (Ngn3)
B1 | ~55 | ~85 | comparable to the Pan-CM induction with 2% KO serum replacer | improved | ~2 | ~5000 | ~2500 | ~3.3 | ~200 | > 5 | ~3000 | 
B2 |  |  |  |  |  |  |  |  |  |  |  | lead to stabilization
